Our source for the stoichiometry N values is article PMC12623717.

The target in experiment [1] is Rotavirus strain SA11 nonstructural protein 2, wildtype, untagged (NSP2WT) (rotavirus strain SA11). Nature of the experiment: crystal structure; sitting drop vapor diffusion, 20 °C; protein ~8 mg/mL in 10 mM Tris-HCl pH 7.2, 50 mM NaCl, 1 mM DTT; reservoir 100 mM Tris-HCl pH 7.5, 0.2 M magnesium acetate, 12% PEG6K; space group I422, 1 molecule per asymmetric unit, octamer with D4 symmetry.

Experiment [2] deals with Rotavirus strain SA11 nonstructural protein 2 with the K294E change, untagged (NSP2 K294E) (rotavirus strain SA11). The description is as above.

As a reminder, the stoichiometry N is a count of units in the complex or per binding partner. In turn, “Rotavirus strain SA11 nonstructural protein 2, wildtype, untagged (NSP2WT) (natural protein)” displayed a stoichiometry N in experiment [1] of 8.

Substance “Rotavirus strain SA11 nonstructural protein 2 with the K294E change, untagged (NSP2 K294E) (natural protein)” displayed a stoichiometry N in experiment [2] of 8.
